# Assay: soluble on expression in E. coli; label from the status in PepcDB or PDB records
row,Sequence,soluble on expression in E. coli
1,MYRLQIEKIRGFRDFYPEDMDVEKFIFKTAEEAAEAFGFRRIDFPSLEYLDLYRIKSGEELLQQTYSFVDKGGREVTLIPEATPSTVRMVTSRKDLQRPLRWYSFPKVWRYEEPQAGRYREHYQFNADIFGSDSPEADAEVIALASSILDRLGLQDIYEIRINSRKIMEEIIGGMTSSDPFSVFSIIDRYHKISREEFVDQLRSAGIGEDGVSMIADLCSGTRGIDEMARITGKSSEEIARMAAVEDLLASYGVKNVRYDFSIVRGLSYYTGIVFEAYDRSGQFRAILGGGRYDNLASLMSGESVPAVGFGMGDAVISLLLKRENVQIPREKKSVYICRVGKINSSIMNEYSRKLRERGMNVTVEIMERGLSAQLKYASAIGADFAVIFGERDLERGVVTIRNMYTGSQENVGLDSVVEHLISQATLEHHHHHH,soluble
2,MGSDKIHHHHHHMKISVSKNDLENALRYLQAFLDKKDASSIASHIHLEVIKEKLFLKASDSDIGLKSYIFTQSSDKEGVGTINGKKFLDIISCLKDSNIILETKDDSLAIKQNKSSFKLPMFDADEFPEFPVIDPKVSIEVNAPFLVDAFKKIAPVIEQTSHKRELAGILMQFDQKHQTLSVVGTDTKRLSYTQLEKISIHSTEEDISCILPKRALLEILKLFYENFSFKSDGMLAVIENEMHTFFTKLIDGNYPDYQKILPKEYISSFTLGKEEFKESIKLCSSLSSTIKLTLEKNNALFESLDSEHSETAKTSVEIEKGLDIEKAFHLGVNAKFFLEALNALGTTQFVLRCNEPSSPFLIQESLDEKQSHLNAKISTLMMPITL,not soluble
3,MAHHHHHHMSTFARRRIIQDLNKINKEKNKSFEASPFADNIMYCHAIIRGPDDTIWECGIFHLIIHFSEEYPVSPPKLRFLSKIYHPNIYSDGNICLDILQNQWSPIYDITSILTSIQSLLNDPNTSSPANPEAARIFINNRNLYNKRVLMCVEDSWEIPKFNINNYS,not soluble
4,MAHHHHHHMGTLEAQTQGPGSMNAAVIDSHSAQDYVVADIALAGWGRKELNIAETEMPGLVQIRDEYKAQQPLKGARIAGSLHMTIQTGVLIETLKALGADVRWASCNIFSTQDHAAAAIVEAGTPVFAFKGESLDEYWEFSHRIFEWPNGEFANMILDDGGDATLLLILGSKAEKDRSVIARPTNEEEVALFKSIERHLEIDGSWYSKRLAHIKGVTEETTTGVHRLYQMEKDGRLPFPAFNVNDSVTKSKFDNLYGCRESLVDGIKRATDVMIAGKIAVVAGYGDVGKGCAQSLRGLGATVWVTEIDPICALQAAMEGYRVVTMEYAADKADIFVTATGNYHVINHDHMKAMRHNAIVCNIGHFDSEIDVASTRQYQWENIKPQVDHIIFPDGKRVILLAEGRLVNLGCATGHPSFVMSNSFTNQTLAQIELFTRGGEYANKVYVLPKHLDEKVARLHLARIGAQLSELSDDQAAYIGVSKAGPFKPDHYRY,soluble
5,MPISTPQEIIEDIRQGKMVILMDDEDRENEGDLIMAAEHITPAAINFMATHGRGLICLTLTKERCRRLGLNPMVQDNNAQYTTNFTVSIEAAEGVTTGISAADRARTVQAAVAKEAKAADLVQPGHIFPLAAQDGGVLTRAGHTEAGCDLARLAGLEPASVIVEILNDDGTMARRPDLEVFAEKHGLKLGTIADLIEYRNHTETTIERVAQCKLPTEYGEFELVTYRDIIDKQIHFALRKGDITSAPTLVRVHLQDTFTDLLHSNRAAERSWPLATAMQRIGQEGGVLVILGHEESSELLLHRVKMFELQDKGEAPAMAKKQGTSRRVGVGSQILADLGVKEMRLLSSPNKKYHALGGFGLNVVEYVCE,not soluble
6,MGSDKIHHHHHHMTSSFTDYCKFFNRILSEVQETQEQAIIKGAHLVSEAVMNGGRFYVFGSGHSHMIAEEIYNRAGGLALVTAILPPELMLHERPNKSTYLERIEGLSKSYLKLHQVTNKDVIMIISNSGRNTVPVEMAIESRNIGAKVIAMTSMKHSQKVTSRHKSGKKLYEYADVVLDNGAPVGDAGFQIANSEIYSGATSDSIGCFLAQALIVETLHLLVQQGFEPPVFKSSNVDGADLYNDKIFNEYVKW,not soluble
7,MGSDKIHHHHHHAQSLKDLLNKDNISKVVNAITGTPETIDMTGTWTYSGSAVEFESDNLLMKAGGAAAATMAENKLNEQLSKVGIKEGQMSFTFNADSTFTSTVGKKKLSGTYSYNASTKQVDLKYLKLLNLHAKVNCTSNSMDLLFNSDKLLKLMTFLGSKTNSTALKTVSSLAENYDGMMLGFGLKK,not soluble
8,MRVATFSLVAQDPKTGDLGVAVASKFLAVGAVVPFAEAGVGAIATQSYANPRYGPQGLALLRQGASPEGVLEAFRRTDPGLEKRQFGLVAATGESLTFTGAECHPWAGGVAGKGFAAQGNLLSGSEVVEAMVETFLTAQAPFPERLLLALKAGEEAGGDRRGKQSAALLVVGEGKGYGGLWDRYVDLRVDDHPEPIDELFRLLSLHRLLFERPKGRRPLTEEEVRFFQGVLGRLGLYAGEAHGVFDEATERAFLALIGMENLEERYRGGPEVDEATLSYLKGRYGWS,soluble
9,AHHHHHHGSVIEEEGKVEILPRDVDLSKYVDSVEVDVDNFGDYHELRKELREKKMRFIDANVFIYAILKPKRELNEKELKIKRVSKEIFNRINGGEEVVTTVVHLSEVANVLEDAANLSFAISFLKDVLIKGNVIVEEVSDRDYMESVLLAEEKGVSINDALAYILMKRKGIEEIYTFDRHFENLDVRIVNS,soluble
10,MSLNKIKILPLAIALALSGCGSDETTPIDTGSHVASPDWQDQIIYFLMIDRFNDGDSALNDQGQNEFDPTSDKKFSGGDLVGVSDKLSYIEDLGATSIWITPPVANQWWDAEQNYGGYHGYWARDFQKVDEHFGDMESYQALAREVHARNMFLIQDIVTNHVGNFFTYDDPYSYDPSLPCQGFRLIKNALPAGQELPYPLNMNECKTDGTGSYHWTPTITDHNDPVQEKTWQLSDLDDLNTSDPEVRAYLKESYRKWIREVGVDGFRIDTVKFVEHDFWSDFLHADDGVMTQAVDTGRDNFLTFGEVFETSTPYHTEGEEKMLTYIGESGSPKQLTSVLNFPLQATMTRVFASGQPTDYLRFRLEKMMEMFPNPYIMPNFIDNHDMPRFLSQGSVNDMKQALITMMSVPGIPVIYQGTEQAMSAARDAMFAGGYREDGNYVDSFDQNSEMYLFIQELAKLRTENKVMTRGEIKVIGSDKAGAGVFAFTRTLDNDEVLVVMNTSNSPMLMNQLDVEQAGGTVFKQQIMSNWADAPEQLVADENGHVTLELPAKSAVIYSKTSSNQSVNTPDLNIQLAQDWEGKTITGDIVIAGSANANEKLNLVVDGNLETAQTITVGADGQFSVTLSTRHFAIGEQQHRFAIYSTEKKAGIEDVNFVSNLSWSNTPDDTIDDAGDAQDGVGGPNGNYSLPTDPTFDKDNSQLAINKAEVFTVGSNVRLTFTMDKITDTWLPPNGFDHVGFTIFIDLPEEAATNLSELPKINASMPNGTWSRNAVVFGWQSSIYNTKGANATTWGEAVTPAPTVTVDKANNTISMDFASDALGRPESLDGIRFYVTTWDLDGLSATYRPLEQDKGPWNFSGGASDESKIWDDLPIITLSEGHHHHHH,soluble
11,GPGSMSAHSAARRWTNLAGIGSCHPRHHHYPTSTKEVQDAVELVRSQNGKCRVAGAGKSPNTATFTNEHLIHMERMNRILSIDTVAHTITCEAGAVMEEVMRSVDKVGLMVRCVPSYVRTTVGGCIATATHSSGIQCHCLSDYVRGLKIVDGCAQIRTLVAGKDDAELRLAACHLGVMGIVTEVTLEVQPRIQWKLVSQPLLMKDATNAALVAEKVKSTEYYRWWWVPHTDGCYESYGRVESTTGISALPPLPDALTAQDDAPVQLSPAALQEESRTNESAERAGDRSISLIVKSALKYIATDFVRHQVVECSLYAACLCPAIQPYVNKAYRRAFFSAPQVQRGSALECFTFDCLFKQWANEWAIDASRAVEAFNRLRDMIDREGMLLHFPVEFRFTAPDVSDMSPAVGRPTCWIGVVMYRPYGQEARDTRRCYDGFCRVMEEMGGRPHWAKYYDWGHREITATYGDHWERFLALRRRMDPDDIFVNGWFRNLMSPDRVNSTACTP,not soluble
12,GSHMLESSAEESLAYREDDLRGRLGKVITAVPVDGFGEVVIEGIGGTISKSAVSFDNQQISYGTTVLVVDINNGVLSVTPHEPI,soluble
13,MQLGETAEEACLRELYEETGLQLEIERLAFIHENFFTGQESDFLNKVNCHELSFYFLMKPLTENLSVKSESFGTDGSKEFLKWIPIAEYKNYKAFPTFFADELKNLSVNSQIKRIVTTELEHHHHHH,not soluble
